For 12 molecules, Kd and binding signal (fold signal vs unmethylated) results are on record in publication PMC6017926, “CpG Methylation Changes G-Quadruplex Structures Derived from Gene Promoters and Interaction with VEGF and SP1”.

The Kd is the concentration at which binding is half-saturated. A lower Kd goes with tighter binding.

In data set [1] the target is GST-SP1 (UniProt P08047). Nature of the data set: SPR. To be noted: SPR VEGF165: DNA folded in 10 mM Tris-HCl, 100 mM KCl, pH 7.4, 25 °C, ELONA: DNA folded in TK (100 mM KCl) or 100 mM LiCl buffer, binding in TBS (10 mM …).
The target in data set [2] is GST-SP1 (UniProt P08047). Nature of the data set: ELONA. To be noted: 5-methylcytosine at CpG (underlining lost in text; CpG C at 5, 10, 16); SPR VEGF165: DNA folded in 10 mM Tris-HCl, 100 mM KCl, pH 7.4, 25 °C; ELONA: DNA folded in TK (100 mM KCl) or 100 mM LiCl buffer, binding in TBS (10 mM …).
The next data set deals with VEGF165 (UniProt P15692-4 27-191). Nature of the data set: SPR; 100 mM K+; SPR VEGF165: DNA folded in 10 mM Tris-HCl, 100 mM KCl, pH 7.4, 25 °C; ELONA: DNA folded in TK (100 mM KCl) or 100 mM LiCl buffer, binding in TBS (10 mM Tris-HCl, 150 mM NaCl, 5 mM KCl), 90 µM ZnCl2, pH 7.3, RT; SPR GST-SP1: captured by anti-GST on CM5, single-cycle kinetics 10-160 nM DNA, running buffer not stated. Conditions: chain copies: 2, label: 5' biotin for ELONA. On the technique in general: In SPR one partner is held on a chip, and binding of the other changes the refractive index at the surface.
VEGF165, sequence (P15692 other isoform, or with tags, fused parts or gaps): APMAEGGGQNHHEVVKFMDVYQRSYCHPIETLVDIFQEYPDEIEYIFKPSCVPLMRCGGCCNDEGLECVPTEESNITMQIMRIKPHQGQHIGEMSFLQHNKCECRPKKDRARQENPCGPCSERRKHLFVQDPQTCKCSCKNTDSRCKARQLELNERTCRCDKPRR

GST-SP1, sequence (P08047 whole entry): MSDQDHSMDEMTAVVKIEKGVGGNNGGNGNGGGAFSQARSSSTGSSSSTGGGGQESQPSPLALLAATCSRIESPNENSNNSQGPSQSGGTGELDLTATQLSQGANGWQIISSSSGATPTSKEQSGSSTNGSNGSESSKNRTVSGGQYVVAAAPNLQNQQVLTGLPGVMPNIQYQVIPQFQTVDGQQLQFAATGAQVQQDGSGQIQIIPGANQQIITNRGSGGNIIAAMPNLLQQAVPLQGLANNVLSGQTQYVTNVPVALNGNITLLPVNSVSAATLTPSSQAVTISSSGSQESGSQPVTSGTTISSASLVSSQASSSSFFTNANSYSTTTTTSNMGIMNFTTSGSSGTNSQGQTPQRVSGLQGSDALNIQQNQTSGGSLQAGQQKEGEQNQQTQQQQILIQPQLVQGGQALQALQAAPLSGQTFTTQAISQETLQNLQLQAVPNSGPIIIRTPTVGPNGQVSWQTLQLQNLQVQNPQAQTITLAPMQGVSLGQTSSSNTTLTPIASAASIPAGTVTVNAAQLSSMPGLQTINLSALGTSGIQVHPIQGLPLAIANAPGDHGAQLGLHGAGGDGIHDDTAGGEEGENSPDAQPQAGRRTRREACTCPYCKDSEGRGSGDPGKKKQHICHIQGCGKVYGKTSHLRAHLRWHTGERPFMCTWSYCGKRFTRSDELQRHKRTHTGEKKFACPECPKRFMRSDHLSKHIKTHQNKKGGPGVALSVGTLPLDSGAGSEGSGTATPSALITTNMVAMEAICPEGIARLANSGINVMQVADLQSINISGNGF

“CGGGCGCGGGAGGAAGGGGGCGGGAGC [BCL-2 G4 methylated]” registered a Kd in the data set with GST-SP1 [1] (5-methylcytosine at CpG (underlining lost in text; CpG C at 1, 5, 7, 21)) of 28 nM.

Take “CGGGCGCGGGAGGAAGGGGGCGGGAGC [BCL-2 G4 unmethylated]”: the Kd with GST-SP1 [1] is 12 nM. Molecule “CGGGGCGGGGCGGGGGCGGGGGCG [HRAS2 G4 methylated]” had a Kd with GST-SP1 [1] (5-methylcytosine at CpG (underlining lost in text; CpG C at 1, 6, 11, 17, 23)) of 27 nM.

In the case of “CGGGGCGGGGCGGGGGCGGGGGCG [HRAS2 G4 unmethylated]”, the Kd with GST-SP1 [1] came to 10 nM. In the case of “GGCGAGGAGGGGCGTGGCCGGC [c-KIT G4 methylated]”, the Kd in the data set with GST-SP1 [1] (5-methylcytosine at CpG (underlining lost in text; CpG C at 3, 13, 19)) is 11 nM. In the data set with GST-SP1 [1], “GGCGAGGAGGGGCGTGGCCGGC [c-KIT G4 unmethylated]” yielded a Kd of 16 nM. This lies in the double-digit nanomolar range.

In the data set with GST-SP1 [2], “GGGGCGGGCCGGGGGCGGGG [VEGF G4 methylated]” showed a binding signal (fold signal vs unmethylated) of 1.5. This molecule also had a Kd with GST-SP1 [1] (5-methylcytosine at CpG (underlining lost in text; CpG C at 5, 10, 16)) of 11 nM. For “GGGGCGGGCCGGGGGCGGGG [VEGF G4 unmethylated]”, the Kd in the data set with GST-SP1 [1] amounted to 14 nM. In other words, the double-digit nanomolar range. Take “TCGGGTTGCGGGCGCAGGGCACGGGCG [HRAS1 G4 methylated]”: the Kd with GST-SP1 [1] (5-methylcytosine at CpG (underlining lost in text; CpG C at 2, 9, 13, 22, 26)) was 36 nM. Consider “TCGGGTTGCGGGCGCAGGGCACGGGCG [HRAS1 G4 unmethylated]”, for which, in the data set with GST-SP1 [1], the Kd is 10 nM. With GGGGCGGGCCGGGGGCGGGG (structured_DNA, 5-methylcytosine at CpG (underlining lost in text; CpG C at 5, 10, 16)) [VEGF G4 methylated], binding with VEGF165 (G4, altered topology) was put at a Kd of 25 ± 5.7 nM. In the data set with VEGF165 (G4, parallel in K+), GGGGCGGGCCGGGGGCGGGG (structured_DNA) [VEGF G4 unmethylated] showed a Kd of 13 ± 0.43 nM.
